In patent US20110002926A1:

Assays:
[1] = molecular target: soluble HCV E2 (sE2661), HIS-tagged, baculovirus expressed (Hepatitis C virus (genotype not stated)); experiment: BIAcore SPR
[2] = molecular target: soluble HCV E2 (sE2661), HIS-tagged, baculovirus expressed (Hepatitis C virus (genotype not stated)); experiment: BIAcore SPR, sE2 injected over antibody
[3] = molecular target: HCV E1E2 glycoproteins of genotype 2a (J6) (Hepatitis C virus genotype 2a (J6)) (UniProt P26660); experiment: cell-based or functional assay
[4] = molecular target: HCV E1E2 glycoproteins of genotype 1b (Con1) (Hepatitis C virus genotype 1b (Con1)) (UniProt Q9WMX2); experiment: cell-based or functional assay
[5] = molecular target: soluble HCV E2 (sE2661), HIS-tagged, baculovirus expressed (Hepatitis C virus (genotype not stated)); experiment: BIAcore SPR, sE2 injected over antibody; lower end differs from Table 10

HCV E1E2 glycoproteins of genotype 1b (Con1) (Hepatitis C virus genotype 1b (Con1)), sequence (Q9WMX2 384-746 limits assumed, chain 1 of 2): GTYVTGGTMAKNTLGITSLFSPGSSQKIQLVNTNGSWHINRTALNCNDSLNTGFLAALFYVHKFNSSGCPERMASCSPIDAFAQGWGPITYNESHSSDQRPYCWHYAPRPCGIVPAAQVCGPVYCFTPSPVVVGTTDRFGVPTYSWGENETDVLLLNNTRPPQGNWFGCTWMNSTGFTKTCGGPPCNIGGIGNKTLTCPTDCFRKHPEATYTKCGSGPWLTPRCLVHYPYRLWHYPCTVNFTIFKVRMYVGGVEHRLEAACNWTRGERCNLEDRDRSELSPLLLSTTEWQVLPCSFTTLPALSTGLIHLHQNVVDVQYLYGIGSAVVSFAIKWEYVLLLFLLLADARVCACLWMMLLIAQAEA
HCV E1E2 glycoproteins of genotype 1b (Con1) (Hepatitis C virus genotype 1b (Con1)), sequence (Q9WMX2 192-383 limits assumed, chain 2 of 2): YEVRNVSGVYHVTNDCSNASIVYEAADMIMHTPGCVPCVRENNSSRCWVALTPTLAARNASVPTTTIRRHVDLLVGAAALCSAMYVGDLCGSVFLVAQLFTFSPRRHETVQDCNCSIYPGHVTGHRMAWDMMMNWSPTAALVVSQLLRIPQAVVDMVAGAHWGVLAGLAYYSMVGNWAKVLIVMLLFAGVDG

Substance	Kd [1]	Kd [2]	EC50 of HCVpp entry into Huh-7.5 cells (luciferase) [3]	EC50 of HCVpp entry into Huh-7.5 cells (luciferase) [4]	Kd [5]
AP33 Fab	50 nM	–	–	–	–
AP33 monoclonal antibody	–	5 to 8 nM	2.07 µg/mL	1.42 µg/mL	0.5 to 8 nM
